Measured values published in US20240018501A1, “HIGHER PERFORMANCE PROTEASES FOR SCARLESS PEPTIDE TAG REMOVAL” (priority 2017, published 2024).

Assays:
LicP = LicP self-cleavage and intermolecular cleavage (SDS-PAGE, MALDI-TOF MS); assay type: biochemical, Bacillus licheniformis ATCC 14580
Experimental: Expression and purification of LicP and LicP mutant proteins. E. coli BL21 (DE3) cells were transformed with one of the following plasmids: pRSFDuet-1/LicP-25-433, pRSFDuet-1/LicP-25-433-S376A, pRSFDuet-1/LicP-25-433-H186A, pRSFDuet-1/LicP-25-433-E100A or pRSFDuet-1/LicP-25-433-E100A-E102A, and plated on an LB plate containing 50 mg/L kanamycin. A single colony was picked and grown in 20 mL of LB containing 50 mg/L kanamycin at 37° C. for 12 h and the resulting culture was inoculated into 2 L of LB containing 50 mg/L kanamycin. Cells were cultured at 37° C. until the OD at 600 nm reached 0.5, cooled and IPTG was added to a final concentration of 0.1 mM. The cells were cultured at 18° C. for another 10 h before harvesting. The cell pellet was resuspended on ice in LanP buffer (20 mM HEPES, 1 M NaCl, pH 7.5 at 25° C.) and lysed by homogenization. The lysed sample was centrifuged at 23,700×g for 30 min and the pellet was discarded. […] Protein concentration was quantified by the absorbance at 280 nm. The extinction coefficient for His6-LicP-25-433 was calculated as 46,300 M^−1 cm^−1. […]
Intermolecular cleavage of His6-LicP-25-433-S376A by His6-LicP-25-433. […] The three reactions were allowed to proceed at room temperature for 0, 2, 4, 7 and 19 h before being stopped by addition of SDS loading buffer and boiling at 95° C. for 10 min and analyzed by SDS-PAGE.

[1] = Storage and freeze-thaw stability of the proteases; assay type: physicochemical

NisA-NDVNPE-I1E, P13068, sequence (P13068 whole entry, looked up): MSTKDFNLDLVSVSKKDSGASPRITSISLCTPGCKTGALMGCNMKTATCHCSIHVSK
NisA-NDVNPE-I1C, P13068, sequence (P13068 whole entry, looked up): as above
NisA-NDVNPE-I1F, P13068, sequence (P13068 whole entry, looked up): as above
NisA-NDVNPE, P13068, sequence (P13068 whole entry, looked up): as above
NisA-NDVNPE-I1G, P13068, sequence (P13068 whole entry, looked up): as above
NisA-NDVNPE-I1K, P13068, sequence (P13068 whole entry, looked up): as above
NisA-NDVNPE-I1W, P13068, sequence (P13068 whole entry, looked up): as above
NisA-NDVNPE-I1L, P13068, sequence (P13068 whole entry, looked up): as above
NisA-NDVNPE-I1T, P13068, sequence (P13068 whole entry, looked up): as above

B1: His6-LicP-25-433 (protein)
chain: GSSHHHHHHSQDPKEQAGEQYLLLEHVKDKSKLLDTAEQFHIHADVIEEIGFAKVTGEKQKLAPFTKKLAEKVGADVIEKPIANTAVNETESVISGSPAWGLDGILELKEYLWFAAKQTDSYRTYQIERGHPDVKVALIDSGLDLDHPDLKASVNTNGGWNYIDGKPVSGDPTGHGTQTAGMINIIAPDVTITPYQVLDEKGGDSYNIMKAMVDAVNDGHEVINISTGSYTSLDREGKVLMKAYQRAANYAAKHQVLVFSSAGNKGVNLDEMRKTENKVHLPSALKHVVSVGSNMKSNNISPYSNQGREIEFTAPGGYLGETYDQDGMVRVTDLVLTTYPKGKDNTALDQMLNIPKGYSLSYGTSLAAPQVAGTAALVISEYRERHHRKPSAKQVHHILRKSALDLGKPGKDVIYGYGEVRAYQALKMMNKE
With B1 the “LicP self-cleavage during expression” value (LicP) was “a cleavage event occurred”, the “activity after multiple rounds of freeze-thaw” value [1] was “no obvious decrease in activity” and the activity after storage ([1]; 12 weeks at 4° C) was “persistent activity”. The “Complete Reaction? (LicP cleavage; [LicP] 2 µM, [Substrate] 65 µM, 30 h at RT)” value (NisA-NDVNPE-I1K, P13068) was “N”, the “removal of the NisA leader peptide by LicP, MALDI-TOF MS” value (shortened to “removal of the NisA leader peptide”) (NisA-NDVNPE-I1K, P13068) was “also accepted by LicP, although some substrate still remained after 30 hours of incubation” and the “Complete Reaction? (LicP cleavage; [LicP] 2 µM, [Substrate] 65 µM, 30 h at RT)” value (NisA-NDVNPE-I1E, P13068) was “N”. The “removal of the NisA leader peptide” value (NisA-NDVNPE-I1E, P13068) was “Peptides with Glu or Phe in the P1′ position turned out to be poor substrates”, the “Complete Reaction? (LicP cleavage; [LicP] 2 µM, [Substrate] 65 µM, 30 h at RT)” value (NisA-NDVNPE-I1G, P13068) was “Y” and the “removal of the NisA leader peptide” value (NisA-NDVNPE-I1G, P13068) was “in front of a Gly or Ile residue was slightly less efficient, but complete consumption of precursor peptides was still observed”. The “time-dependent cleavage by LicP, gel-based assay (100 µM peptide, 0.4 µM LicP)” value (from here on “time-dependent cleavage by LicP”) (LicA2-E-1Q) was “even substitution with structurally related amino acids Asp and Gln was not tolerated”, the “time-dependent cleavage by LicP” value (LicA2-D-5A) was “LicA2-D-5A and LicA2-D-5K are processed much more slowly” and the “Complete Reaction? (LicP cleavage; [LicP] 0.2 µM, [Substrate] 180 µM, 4 h at RT)” value (ProcA1.7-NDVNPE) was “Y”. For the same molecule, the “intermolecular cleavage of the S376A mutant by wild type LicP, SDS-PAGE, 1:1, 0.1 mg/mL each” value (His6-LicP-25-433-S376A) was “autoprotolysis can take place intermolecularly, albeit slowly”, the “Complete Reaction? (LicP cleavage; [LicP] 1 µM, [Substrate] 290 µM, 6 h at RT)” value (Linear LicA2) was “Y” and the “time-dependent cleavage by LicP” value (LicA2-P-2A) was “alanine substitution at both sites did not alter the processing efficiency of LicP significantly”. The “Complete Reaction? (LicP cleavage; [LicP] 2 µM, [Substrate] 65 µM, 30 h at RT)” value (NisA-NDVNPE, P13068) was “Y”, the “removal of the NisA leader peptide” value (NisA-NDVNPE, P13068) was “in front of a Gly or Ile residue was slightly less efficient, but complete consumption of precursor peptides was still observed” and the “time-dependent cleavage by LicP” value (LicA2-V-4L) was “still accepted by LicP with a slightly reduced cleavage efficiency”. For the same molecule, the “time-dependent cleavage by LicP” value (LicA2-N-3A) was “alanine substitution at both sites did not alter the processing efficiency of LicP significantly”, the “competitive MALDI-TOF MS assay (21 nM LicP, 17 µM each of modified LicA2 and linear G-LicA2)” value (linear G-LicA2) was “the cleavage of linear LicA2 only started after the modified LicA2 had been consumed and required more enzyme to be completed” and the “Complete Reaction? (LicP cleavage; [LicP] 0.2 µM, [Substrate] 65 µM, 20 h at RT)” value (NisA-NDVNPE-I1T, P13068) was “Y”. The “removal of the NisA leader peptide” value (NisA-NDVNPE-I1T, P13068) was “The highest proteolytic efficiency was obtained when the P1′ position was occupied by Thr or Cys”, the “time-dependent cleavage by LicP” value (LicA2-D-5K) was “LicA2-D-5A and LicA2-D-5K are processed much more slowly” and the “Complete Reaction? (LicP cleavage; [LicP] 0.5 µM, [Substrate] 50 µM, 12 h at 4 C)” value (MBP-BamL) was “Y”. The “removal of the MBP tag, SDS-PAGE time course, against TEV protease” value (MBP-BamL) was “LicP was capable of removing the MBP-tag in front of the BamL protein with similar efficiency as TEV”, the “time-dependent cleavage by LicP” value (LicA2-V-4A) was “still accepted by LicP with a slightly reduced cleavage efficiency” and the “Complete Reaction? (LicP cleavage; [LicP] 2 µM, [Substrate] 65 µM, 30 h at RT)” value (NisA-NDVNPE-I1W, P13068) was “N”. The “removal of the NisA leader peptide” value (NisA-NDVNPE-I1W, P13068) was “also accepted by LicP, although some substrate still remained after 30 hours of incubation”, the “time-dependent cleavage by LicP” value (LicA2-E-1A) was “LicA2-E-1A was not a substrate under the assay conditions” and the “Complete Reaction? (LicP cleavage; [LicP] 21 nM, [Substrate] 17 µM, 10 min at RT)” value (Modified LicA2) was “Y”. For the same molecule, the “rate of cleavage in a competitive MALDI-TOF MS assay (21 nM LicP, 17 µM each of modified LicA2 and linear G-LicA2)” value (Modified LicA2) was “complete consumption of modified LicA2 peptide within 10 min, corresponding to a rate of at least 80 min^-1”, the “Complete Reaction? (LicP cleavage; [LicP] 2 µM, [Substrate] 65 µM, 30 h at RT)” value (NisA-NDVNPE-I1F, P13068) was “N” and the “removal of the NisA leader peptide” value (NisA-NDVNPE-I1F, P13068) was “Peptides with Glu or Phe in the P1′ position turned out to be poor substrates”. The “time-dependent cleavage by LicP” value (LicA2-V-4F) was “LicA2-V-4F was no longer processed”, the “Complete Reaction? (LicP cleavage; [LicP] 0.2 µM, [Substrate] 65 µM, 20 h at RT)” value (NisA-NDVNPE-I1C, P13068) was “Y” and the “removal of the NisA leader peptide” value (NisA-NDVNPE-I1C, P13068) was “The highest proteolytic efficiency was obtained when the P1′ position was occupied by Thr or Cys”. For the same molecule, the “cleavage by LicP, MALDI-TOF MS” value (DVNPE-Licβ) was “the 5-residue oligopeptide was successfully removed”, the “Complete Reaction? (LicP cleavage; [LicP] 2 µM, [Substrate] 65 µM, 30 h at RT)” value (NisA-NDVNPE-I1L, P13068) was “N” and the “removal of the NisA leader peptide” value (NisA-NDVNPE-I1L, P13068) was “also accepted by LicP, although some substrate still remained after 30 hours of incubation”. For the same molecule, the “time-dependent cleavage by LicP” value (LicA2-E-1D) was “even substitution with structurally related amino acids Asp and Gln was not tolerated”.
